# Test results: patent publication US20240352438A1, “MEANS AND METHODS FOR DETOXIFYING OCHRATOXIN A” (DSM Austria GmbH, priority 2021, published 2024)
# Positions count from the first letter of the chain named.
# B1: 281 (protein)
# chain: MTTRTRILTAFLSLLAANACAADAAPAAPHTVVLRAARMFDGASGKLVDHPQLTIVGNKIVRIAQGDKAEVPAGAEVVDLGDATLLPGFIDAHVHLSGQSSDNWYGDFFDNMMRFPAEQALYGAYYARITLEAGFTSVRDVGSTDWVALGLRNAIDAGKVPGPRMLVSNYAVGSTGGHADQDPIPPHKLPLAGPLQGVCNGPEECRAAVRYQIKYGANVIKFMPSGGVLSFSDPVDAPELSQDEMNAVIGESHAWGRKVAAHAHGDKAAKMAVAAGVDSIEHGSFIEDDTLRAMKAKNVYLVPTISAIAHVEEKIGTFPPVIAEKGRAAAAHLRQTFRHAVQIGVPIALGTDAGVGAHGSNAREFRYMVENGLTPAQALLAGTANAARLLGTFDRVGTLEAGKLADVVAVPGNPIADITVTERPLFVMKDGVVVRRDAVR
# modifications: exemplary polypeptide
# B2: 294 (protein)
# chain: B1 chain with F231L, I308V, G356F
# modifications: exemplary polypeptide
# B3: 307 (protein)
# chain: B1 chain with F231L, I308A, A330M
# modifications: exemplary polypeptide
# B4: 290 (protein)
# chain: B1 chain with F231L, I308A, G356P
# modifications: exemplary polypeptide
# B5: 306 (protein)
# chain: B1 chain with F231L, I308A, A330L
# modifications: exemplary polypeptide
# B6: 287 (protein)
# chain: B1 chain with L229I, F231L, I308A
# modifications: exemplary polypeptide
# B7: 295 (protein)
# chain: B1 chain with F231L, I308V, G356P
# modifications: exemplary polypeptide
# B8: 304 (protein)
# chain: B1 chain with I184V, A192L, F231L
# modifications: exemplary polypeptide
# B9: 282 (protein)
# chain: B1 chain with F231L, V235A
# modifications: exemplary polypeptide
# B10: 309 (protein)
# chain: B1 chain with F231L, I308A, L333I
# modifications: exemplary polypeptide
# B11: 296 (protein)
# chain: B1 chain with F231L, I308V, G356Y
# modifications: exemplary polypeptide
# B12: 303 (protein)
# chain: B1 chain with F231L, V355L, G356P
# modifications: exemplary polypeptide
# B13: 289 (protein)
# chain: B1 chain with F231L, I308A, G356F
# modifications: exemplary polypeptide
# B14: 284 (protein)
# chain: B1 chain with F231L, V235F
# modifications: exemplary polypeptide
# B15: 305 (protein)
# chain: B1 chain with I184V, A192M, F231L
# modifications: exemplary polypeptide
# B16: 285 (protein)
# chain: B1 chain with F231L, V235L
# modifications: exemplary polypeptide
# B17: 291 (protein)
# chain: B1 chain with F231L, I308A, G356Y
# modifications: exemplary polypeptide
# B18: 299 (protein)
# chain: B1 chain with F231L, H310D, V355L
# modifications: exemplary polypeptide
# B19: 286 (protein)
# chain: B1 chain with F231E, V321T
# modifications: exemplary polypeptide
# B20: 288 (protein)
# chain: B1 chain with F231L, I308A, A329V
# modifications: exemplary polypeptide
# B21: 301 (protein)
# chain: B1 chain with F231L, V311A, V355L
# modifications: exemplary polypeptide
# B22: 300 (protein)
# chain: B1 chain with F231L, H310E, V355L
# modifications: exemplary polypeptide
# B23: 292 (protein)
# chain: B1 chain with L229I, F231L, I308V
# modifications: exemplary polypeptide
# B24: 297 (protein)
# chain: B1 chain with F231L, G354A, G356V
# modifications: exemplary polypeptide
# B25: 308 (protein)
# chain: B1 chain with F231L, I308A, A330V
# modifications: exemplary polypeptide
# Assay: Enzymatic activity comparison: activity remaining after 65° C. for 10 min at pH 6.0, relative to SEQ ID NO: 1
# Format: physicochemical
# Details: not given
# Procedure: To compare the temperature behavior and thermostability of selected enzymes to one another, enzyme was incubated at 65° C. for 10 min at pH 6.0. The enzymatic activity remaining after incubation was compared to the remaining activity of the enzyme of SEQ ID NO: 1 after incubation, the latter being set to 100%, see Table 16.
row,Molecule,"Enzymatic activity remaining after incubation, compared to SEQ ID NO: 1 (set to 100%) [%]"
1,B1,13
2,B2,36
3,B3,35
4,B4,53
5,B5,36
6,B6,28
7,B7,41
8,B8,63
9,B9,28
10,B10,28
11,B11,43
12,B12,56
13,B13,63
14,B14,13
15,B15,35
16,B16,63
17,B17,34
18,B18,27
19,B19,33
20,B20,90
21,B21,35
22,B22,31
23,B23,21
24,B24,32
25,B25,39

# Assay: OTA detoxification activity assay (specific activity, fluorescence reduction ex/em 390/450 nm)
# Format: biochemical
# Details: pH 6.0; SEQ ID NO: 1 = 100%
# Summary of the method: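 Recombinant enzyme preparation with 200 ng/mL OTA in 100 mM sodium phosphate, at pH 6.0 and pH 7.5, 37° C. Degradation followed as the fall in fluorescence at ex/em 390/450 nm. Specific activity taken from the initial linear slope; one unit degrades 1 μmol OTA per min at a starting OTA of […].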
row,Molecule,"Specific OTA detoxification activities in % compared to the enzyme of SEQ ID NO: 1, pH 6.0 [%]"
1,B1,90
2,B2,31
3,B3,138
4,B4,160
5,B5,114
6,B6,151
7,B7,95
8,B8,25
9,B9,77
10,B10,106
11,B11,42
12,B12,167
13,B13,66
14,B14,48
15,B15,36
16,B16,28
17,B17,77
18,B18,156
19,B19,39
20,B20,29
21,B21,55
22,B22,152
23,B23,77
24,B24,182
25,B25,171

# Same assay, conditions: pH 7.5; SEQ ID NO: 1 = 100%
row,Molecule,"Specific OTA detoxification activities in % compared to the enzyme of SEQ ID NO: 1, pH 7.5 [%]"
1,B1,50
2,B2,42
3,B3,84
4,B4,122
5,B5,74
6,B6,105
7,B7,110
8,B8,24
9,B9,41
10,B10,48
11,B11,38
12,B12,110
13,B13,106
14,B14,23
15,B15,46
16,B16,21
17,B17,79
18,B18,95
19,B19,17
20,B20,31
21,B21,43
22,B22,103
23,B23,81
24,B24,106
25,B25,117
